# Results as given in FireProtDB (doi:10.1111/j.1432-1033.1988.tb14214.x).
# B1: Protein S100-G wild type, P02633 (protein)
# chain: MSAKKSPEELKGIFEKYAAKEGDPNQLSKEELKLLLQTEFPSLLKGPSTLDELFEELDKNGDGEVSFEEFQVLVKKISQ
# Conditions: Bos taurus; pH 7.1; 25 °C; Urea; CD; PIPES 20 mM; reversible: yes; whole UniProt chain shown
protein,measurement,value
B1,denaturant m value,0.91 kcal/mol/M
same,denaturant midpoint (higher = more stable),5.2 M
same,unfolding free energy,4.78 kcal/mol
